Article PMC6017123, “HnRNPA1 Specifically Recognizes the Base of Nucleotide at the Loop of RNA G-Quadruplex”

What was measured:
hnRNPA1 [1] = biological target: T1, hnRNPA1 (UniProt P09651 1-251+304-372, internal_change); test: EMSA; 100 mM Na+; EMSA: 10 mM Tris-HCl pH 7.0, 100 mM NaCl, 0.1 mg/mL BSA, 5 mM DTT, 10% glycerol, 30 min room temperature; 8% native PAGE, 1x TBE + 20 mM NaCl, 80 V, 4 C; conditions: protein: recombinant; (pET-15b, Ni-NTA); label: 32P (T4 PNK, 5'); intermolecular dimeric parallel G-quadruplex, 2 strands
hnRNPA1 [2] = biological target: T1, hnRNPA1; test: CD; peak shift 265 to 260 nm on protein addition; Na+; EMSA: 10 mM Tris-HCl pH 7.0, 100 mM NaCl, 0.1 mg/mL BSA, 5 mM DTT, 10% glycerol, 30 min room temperature; 8% native PAGE, 1x TBE + 20 mM NaCl, 80 V, 4 C; conditions: protein: recombinant; (pET-15b, Ni-NTA); label: 32P (T4 PNK, 5'); intermolecular dimeric parallel G-quadruplex, 2 strands

T1 sequence (P09651 other isoform, or with tags, fused parts or gaps): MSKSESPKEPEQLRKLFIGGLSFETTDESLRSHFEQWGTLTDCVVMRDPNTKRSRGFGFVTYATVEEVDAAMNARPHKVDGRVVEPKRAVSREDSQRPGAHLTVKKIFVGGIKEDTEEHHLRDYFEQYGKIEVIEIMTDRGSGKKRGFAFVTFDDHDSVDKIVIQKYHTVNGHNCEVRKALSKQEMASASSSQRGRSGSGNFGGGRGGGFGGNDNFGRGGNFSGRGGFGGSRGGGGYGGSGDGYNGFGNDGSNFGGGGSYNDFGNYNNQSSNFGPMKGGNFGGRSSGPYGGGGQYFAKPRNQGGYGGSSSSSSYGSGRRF

UUAGGGUUAGGG (structured_RNA) [Native-RNA-Gq]
binding result (hnRNPA1 [1]): binds

UUAGGGUUAGGG (XNA, 2'-O-methyl at positions 7-9 (UmUmAm)) [2'-O-Me-loop-Gq]
binding result (hnRNPA1 [2]): binds
